Results reported in patent publication US20110117017A1, “PEPTIDES WITH PROPERTIES OF AN […] FOR THE ALPHA 1A […] RECEPTOR AND USES THEREOF” (priority 2006, published 2011).

Biological target: T1, alpha1b adrenergic receptor (expressed in Pichia pastoris, membranes) (Homo sapiens (Human)), P35368
T1 chain: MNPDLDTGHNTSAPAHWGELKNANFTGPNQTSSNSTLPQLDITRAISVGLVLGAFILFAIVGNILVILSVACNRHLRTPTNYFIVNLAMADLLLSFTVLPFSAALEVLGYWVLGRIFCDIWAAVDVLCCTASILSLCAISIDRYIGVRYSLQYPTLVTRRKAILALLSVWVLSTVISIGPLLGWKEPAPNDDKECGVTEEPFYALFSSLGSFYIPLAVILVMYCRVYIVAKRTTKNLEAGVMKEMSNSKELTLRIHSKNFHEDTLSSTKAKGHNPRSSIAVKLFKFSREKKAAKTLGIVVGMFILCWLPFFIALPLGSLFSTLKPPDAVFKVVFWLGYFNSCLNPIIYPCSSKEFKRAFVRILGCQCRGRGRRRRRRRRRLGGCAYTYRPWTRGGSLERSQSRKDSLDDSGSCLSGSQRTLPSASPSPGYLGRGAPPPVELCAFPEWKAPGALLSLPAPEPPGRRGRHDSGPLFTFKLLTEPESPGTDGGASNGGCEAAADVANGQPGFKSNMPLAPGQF
Assay: displacement of 3H-prazosin (1 nM) from yeast membranes, filtration

B1: AdTx1 peptide (peptide)
peptide: LTCVTSKSIFGITTEDCPDGQNLCFKRRHYVVPKIYDSTRGCAATCPIPENYDSIHCCKTDKCNE
modifications: not checked
IC50: 2300 nM
